Test results from patent US20230028880A1, “CD38-BINDING AGENTS AND USES THEREOF” (Biohaven Therapeutics Ltd., priority 2019, published 2023).
Values joined by “and” are separate entries in the source; they are usually repeats but may differ in a detail not shown here. Equal entries are not always repeated. *1 amine or outer side, *2 acyl side, *3 side chain or, on linkers, in order; H or OH if unused. Bridges are numbered along the chain shown (N, C = ends). Roman numbers before positions name the chains, in order. Where no end group is shown, it is not given here. [ ]: non-standard residue; d: D form. branched linker from compound 8 (carries γGlu-hexadecanedioic acid) = not defined here; d(γGlu) = O=C(O)[C@@H](CCC(=O)[*:2])N[*:1]; Bip = N[C@@H](Cc1ccc(-c2ccccc2)cc1)C(=O)O; PEG8 = NCCOCCOCCOCCOCCOCCOCCOCCOCCC(=O)O; NMeF = CN[C@@H](Cc1ccccc1)C(=O)O; Ahp(2) = CCCCC[C@H](N)C(=O)O

B1: I-33 (peptide)
peptide 1: ARXYHDGVLXXDC
peptide 2: DCAWHLGELVWCT
modifications: Cys2-Cys12 disulfide; N-terminus extended by PEG8-; X3 and X11 = Ahp ((S)-2-aminoheptanoic acid), X10 = Bph (4-biphenylylalanine); N-terminal -C(O)CH2- (from 2-bromoacetic acid) thioether-linked to S of Cys13; C-terminus carries PEG8 linker
B2: I-27 (peptide)
peptide 1: ARXYHDGVLXXDC
peptide 2: DCAWHLGELVWCT
modifications: not fully specified; Cys2-Cys12 disulfide; N-terminus extended by D-Glu(side chain amide of 12-aminododecanoic acid)-PEG6-; X3 and X11 = Ahp ((S)-2-aminoheptanoic acid), X10 = Bph (4-biphenylylalanine); N-terminal -C(O)CH2- (from 2-bromoacetic acid) thioether-linked to S of Cys13; C-terminus carries PEG10 linker
B3: I-39 (peptide)
peptide 1: ARXYHDGVLXXDC
peptide 2: DCAWHLGELVWCT
modifications: Cys2-Cys12 disulfide; N-terminus extended by hydrazinecarbonyl (urea from Boc-NH-NH2 and CDI)-PEG6-; X3 and X11 = Ahp ((S)-2-aminoheptanoic acid), X10 = Bph (4-biphenylylalanine); N-terminal -C(O)CH2- (from 2-bromoacetic acid) thioether-linked to S of Cys13; C-terminus carries PEG10 linker
B4: I-32 (peptide)
peptide 1: {‑C(O)CH2‑}-AR[Ahp(2)]YHDGVL[Bip][Ahp(2)]DC-{branched linker from compound 8 (carries γGlu-hexadecanedioic acid)}
peptide 2: DDCAWHLGELVWCT-NH2
modifications: disulfide II:3-II:13; not fully specified (N-terminus); reading uncertain; also: N-terminus of chain 2 amide-bonded to the branched linker (one conjugate), thioether at chain A 13 to a chain's N-terminus via -C(O)-CH2- (from 2-bromoacetic acid)
notes: One covalent conjugate
B5: I-40 (peptide)
peptide 1: Ac-AR[Ahp(2)]YHDGVL[Bip][Ahp(2)]DCG
peptide 2: GDCAWHLGELVWCT-NH2
modifications: disulfide II:3-II:13; also: C-terminal Gly of chain 1 amide-bonded to N-terminal Gly of chain 2 (one chain), thioether at chain A 13 to a chain's N-terminus
notes: The section is headed I-40, its product is called compound 523; also called compound 523
B6: I-30 (peptide)
peptide 1: AR[Ahp(2)]YHDGVL[Bip][Ahp(2)]DC-{4‑aminobutanoic acid}
peptide 2: DCAWHLGELVWCT-NH2
modifications: disulfide II:2-II:12; also: thioether at chain A 13 to a chain's N-terminus
B7: I-28 (peptide)
peptide 1: {‑C(O)CH2‑}-AR[Ahp(2)]YHDGVL[Bip][Ahp(2)]DC-{PEG8-d(γGlu)-d(γGlu)-D‑Glu(side chain amide of 12-aminododecanoic acid)-d(γGlu)-d(γGlu)-Gly-Gly}
peptide 2: DCAWHLGELVWCT
modifications: disulfide II:2-II:12; also: chain 2 joined to the end of the chain 1 linker, thioether at chain A 13 to a chain's N-terminus
B8: A L H MeF A L P Bph V W V C (peptide)
peptide: ALH[NMeF]ALP[Bip]VWVC
modifications: not fully specified (N-terminus, bridges); printed as A L H MeF A L P Bph V W V C
notes: Alanine variant at position 5
B9: A L H MeF V L A Bph V W V C (peptide)
peptide: ALH[NMeF]VLA[Bip]VWVC
modifications: not fully specified (N-terminus, bridges); printed as A L H MeF V L A Bph V W V C
notes: Alanine variant at position 7
B10: A L H MeF V A P Bph V W V C (peptide)
peptide: ALH[NMeF]VAP[Bip]VWVC
modifications: not fully specified (N-terminus, bridges); printed as A L H MeF V A P Bph V W V C
notes: Alanine variant at position 6
B11: A L H MeF V L P Bph A W V C (peptide)
peptide: ALH[NMeF]VLP[Bip]AWVC
modifications: not fully specified (N-terminus, bridges); printed as A L H MeF V L P Bph A W V C
notes: Alanine variant at position 9
B12: A L H MeF V L P Bph V W A C (peptide)
peptide: ALH[NMeF]VLP[Bip]VWAC
modifications: not fully specified (N-terminus, bridges); printed as A L H MeF V L P Bph V W A C
notes: Alanine variant at position 11
B13: A L H MeF V L P Bph V A V C (peptide)
peptide: ALH[NMeF]VLP[Bip]VAVC
modifications: not fully specified (N-terminus, bridges); printed as A L H MeF V L P Bph V A V C
notes: Alanine variant at position 10

target: CD38 on Daudi cells (human) (UniProt P28907); assay: ternary binding, flow cytometry: Daudi cells + PE human IgG1k

Molecule	MFI at 1 nM	MFI at 3 nM	MFI at 10 nM	MFI at 30 nM	MFI at 100 nM	MFI at 300 nM	MFI at 1000 nM	MFI at 3000 nM	MFI at 0.03 nM	MFI at 0.1 nM
B1	3470 and 3690	3660 and 1850	21100 and 13600	23700	31900 and 24200	24100 and 34300	17400 and 22200	28400 and 12400	–	–
B2	3130 and 2450	3950 and 3970	3320 and 9770	7880 and 8230	11500 and 10800	7180 and 11100	–	3940 and 5160	2140 and 3880	2880 and 2430
B3	4580 and 5160	6080 and 8740	5300 and 7840	9350 and 9460	16400 and 17300	12200 and 16900	9710 and 12000	10100 and 15000	5280 and 4130	6760 and 4610
B4	2310 and 1770	1690 and 1630	2890 and 1820	4350 and 2820	13800 and 19500	26600 and 20600	28500 and 32400	23000 and 26100	–	–
B5	1100 and 966	900 and 1070	1950 and 1960	2160 and 2640	6090 and 6880	7340 and 7420	7290 and 7250	7330 and 6680	819 and 477	956 and 1170

same assay, conditions: not given

Molecule	MFI at 0.3 nM
B2	3560 and 3190
B4	1990 and 1770
B5	1150 and 1290

target: T1, CD38 (human, UniProt P28907 1-300); assay: ternary binding, flow cytometry: PE-labelled human IgG1k recruited to Daudi cells
T1 construct: whole, on cells; also called cluster of differentiation 38; cyclic ADP ribose hydrolase
Method: Various technologies can be utilized to assess and/or characterize recruitment of antibodies to target cells, e.g., cancer cells. One such assay is a ternary binding assay. An exemplary protocol is described herein. Compounds were diluted in DMSO (MP 191418) to 1000× the starting concentration used in the assay into a 96 well polypropylene plate (Corning 3357). They were then serially diluted in ½ log increments to generate 8-12 concentrations in DMSO (assay dependent). These DMSO stocks were then step diluted 1/100 into PBS (VWR Cat. #20012043). Step diluted compound range was then added into the polypropylene assay plate 1/10 the volume of the assay volume. […] The cells were then added into the polypropylene plate with the step diluted compounds and incubated at 37° C. for 30 min. At the end of the incubation, the cells were centrifuged and washed 2× with How buffer containing 0.5% Tween 20 (BP337-500). Samples were analyzed on a BD FacsCelesta. Mean fluorescence was analyzed using Graphpad Prism and curves were fit using log(inhibitor) vs. response—Variable slope (four parameters).

Molecule	IC50 [nM]
B1	9.3
B2	6
B3	3.3
B4	88
B5	50

target: CD38 (human) (UniProt P28907); assay: ELISA; larger values represent binding

Molecule	Binding Assay (ELISA signal)
Ala Leu His MePhe Val Leu Pro Bph Val Trp Val Cys (SEQ ID NO.2) (peptide)	1.69
Ala Arg Ahp Tyr His Asp Gly Val Leu Bph Ahp Asp Cys (SEQ ID NO.1) (peptide)	1.97

target: CD38 on Daudi cells (ATCC CCL-213) (human) (UniProt P28907); assay: cell-based or functional assay

Molecule	% dead cells at 1 nM	% dead cells at 3 nM	% dead cells at 10 nM	% dead cells at 30 nM	% dead cells at 100 nM	% dead cells at 300 nM	% dead cells at 3000 nM	EC50 (nM), killing of target cells [nM]	% dead cells at 1000 nM	% dead cells at 0.03 nM [%]
B6	14.3% and 14.7%	14.7% and 15.7%	14.1%	16.3% and 15.3%	17.1% and 18.1%	19% and 20.6%	18.1% and 17.5%	175	–	–
B1	–	–	23.4% and 22.3%	28.7% and 28.8%	32.8% and 31.3%	31.9% and 31.6%	16.6%	11	22.6% and 23.3%	–
B2	5.6% and 5.7%	8.2% and 7.7%	7.9% and 8.3%	9.4% and 10.3%	10.3% and 9.1%	–	–	2.4	–	–
B3	15.7% and 16.5%	17.7% and 15.9%	22.4% and 21.4%	22.7% and 22.2%	23.4% and 25.4%	21.3% and 21.5%	–	–	–	11
B4	14.4% and 13.5%	12.8% and 13.5%	13% and 13.3%	14.7% and 14.3%	17.7% and 17.2%	19.5% and 20.1%	16.9% and 16.8%	–	19.7% and 20.4%	–
B5	–	–	–	–	–	–	–	1.9	–	–

same assay, conditions: not given

Molecule	% dead cells at 0.3 nM
B3	11.9% and 12.1%

target: T1, CD38; assay: cell-based or functional assay

Molecule	EC50 (nM), ADCC reporter cells [nM]
B6	12
B1	4.3
B2	3
B3	0.61
B4	63
B7	14
B5	50

target: T2, CD38 (human, UniProt P28907 43-300, limits assumed); assay: ELISA; larger values represent binding
T2 construct: also called cluster of differentiation 38; cyclic ADP ribose hydrolase

Molecule	Binding Assay (ELISA signal)
B8	0.47
ALHAVLP[Bip]VWVC (not fully specified (N-terminus, bridges); printed as A L H A V L P Bph V W V C, Alanine variant at position 4) [A L H A V L P Bph V W V C]	0.1
B9	0.11
B10	0.09
B11	0.12
ALH[NMeF]VLPAVWVC (not fully specified; printed as A L H MeF V L P A V W V C, Alanine variant at position 8) [A L H MeF V L P A V W V C]	0.09
B12	0.41
B13	0.1

target: T1, CD38; assay: cell-based or functional assay; remark: another data set of the same source

Molecule	RLU at 100 nM [RLU]
B4	21800
